Assay [1] addresses T1, monkey PD-L1 expressed on HEK293A cells (monkey (cynomolgus), UniProt Q9NZQ7 19-290 (human entry)).
T1 construct: Full-length cDNA expressed stably; also called HEK293A/monkey PD-L1 cells; HEK293A/monkey PD-L1
Description: FACS on HEK293A/monkey PD-L1 cells, serially diluted antibody (protocol of Example 4).

Assay [2] has as its target T2, human PD-L1 expressed on HEK293A cells (human, UniProt Q9NZQ7 19-290).
T2 construct: Full-length cDNA expressed stably; also called HEK293A/human PD-L1 cells; HEK293A/human PD-L1
Description: FACS on cells, serially diluted antibody (protocol of Example 4); legend paragraph 38 gives panel A as HEK293A/human PD-L1 cells, but the title printed on the sheet reads HEK293A/monkey PDL1.

In assay [3] the target is T2, human PD-L1 expressed on HEK293A cells. Description: FACS on HEK293A/human PD-L1 cells, serially diluted antibody (protocol of Example 4).
The target in assay [4] is T1, monkey PD-L1 expressed on HEK293A cells. The assay can be described thus: FACS on HEK293A/monkey PD-L1 cells, serially diluted antibody (protocol of Example 4). The source holds these as a separate data set.
Assay [5] concerns the target T3, human PD-L1 (ECD)-his (human, UniProt Q9NZQ7 19-238).
T3 construct: Bought protein; it is not tied to the bought construct by a sentence of its own; also called recombinant human PD-L1(ECD)-his; Cat #:10084-H08H, Sino Biological; not shown: His tag
The assay can be described thus: SPR (BIAcore 8K), human PD-L1 (ECD)-his coupled to CM5 chip, antibody injected, 1:1 Langmuir model. On the procedure:
(§1) These antibodies were also tested in SPR assays for their binding affinities to human and monkey PD-L1 with BIAcore™ 8K instrument (GE Life Sciences). Briefly, 100-200 response units (RU) of human PD-L1 (ECD)-his protein (Cat #:10084-H08H, Sino Biological, CN) or monkey PD-L1 (ECD)-his protein (Cat #:90251-008H, Sino Biological, CN) were coupled to CM5 biosensor chips (Cat #:BR-1005-30, GE Life Sciences, US), and the un-reacted groups were blocked with 1M ethanolamine Serially diluted antibodies at concentrations ranging from 0.3 μM to 10 μM were injected into the SPR running buffer (HBS-EP buffer, pH7.4, Cat #:BR-1006-69, GE Life Sciences, US) at 30 μL/minute. The binding affinities were calculated with the RUs of blank controls subtracted. The association rate (kₐ) and dissociation rate (kd) were calculated using the one-to-one Langmuir binding model (BIA Evaluation Software, GE Life Sciences), and the equilibrium dissociation constant KD was calculated as the kd/kₐ ratio.
Background: Surface plasmon resonance follows binding to a sensor surface in real time, without labels.

Assay [6] addresses T4, monkey PD-L1 (ECD)-his (monkey, UniProt Q9NZQ7 19-238 (human entry)).
T4 construct: Bought protein; also called Cat #:90251-C08H, Sino Biological; not shown: His tag
Description: SPR (BIAcore 8K), monkey PD-L1 (ECD)-his coupled to CM5 chip, antibody injected, 1:1 Langmuir model. How it is done: as §1

Where two headings read alike, the source gives them in different places.

As a reminder, the Kd is the free concentration of one partner at which half of the binding sites on the other are occupied at equilibrium, for simple one-to-one binding.

T1 sequence (Q9NZQ7 other isoform, or with tags, fused parts or gaps limits assumed): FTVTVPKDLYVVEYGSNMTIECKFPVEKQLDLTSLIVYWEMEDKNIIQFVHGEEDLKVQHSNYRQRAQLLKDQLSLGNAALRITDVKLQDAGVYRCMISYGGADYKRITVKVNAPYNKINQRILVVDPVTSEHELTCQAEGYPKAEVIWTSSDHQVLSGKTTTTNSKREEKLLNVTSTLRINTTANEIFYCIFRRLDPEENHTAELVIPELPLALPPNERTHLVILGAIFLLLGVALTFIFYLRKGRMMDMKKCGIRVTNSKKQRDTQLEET
T2 sequence (Q9NZQ7 19-290 limits assumed): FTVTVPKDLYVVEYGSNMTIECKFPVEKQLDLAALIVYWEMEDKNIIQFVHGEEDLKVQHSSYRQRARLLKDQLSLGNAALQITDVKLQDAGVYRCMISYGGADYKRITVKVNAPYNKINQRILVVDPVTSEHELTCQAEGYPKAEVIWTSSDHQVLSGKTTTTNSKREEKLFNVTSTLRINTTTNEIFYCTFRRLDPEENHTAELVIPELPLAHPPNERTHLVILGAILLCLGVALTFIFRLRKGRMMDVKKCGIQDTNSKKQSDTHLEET
T3 sequence (Q9NZQ7 19-238): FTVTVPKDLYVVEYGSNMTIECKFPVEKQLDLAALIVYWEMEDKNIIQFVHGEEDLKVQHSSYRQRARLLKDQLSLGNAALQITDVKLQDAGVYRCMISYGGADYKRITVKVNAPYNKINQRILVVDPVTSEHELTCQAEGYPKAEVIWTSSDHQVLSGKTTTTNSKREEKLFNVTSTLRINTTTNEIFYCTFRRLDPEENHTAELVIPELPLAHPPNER
T4 sequence (Q9NZQ7 other isoform, or with tags, fused parts or gaps): as the sequence (Q9NZQ7 19-238) above, with A33T, A34S, S62N, R68Q, Q82R, F173L, T185A, T192I, H215L counted along it

B1: 56E5VH2VL4 (antibody, human IgG1, kappa, N297A, V domains shown)
VH: QVQLQESGPGLVKPSQTLSLTCTVSGGSITSDYWNWIRQHPGKGLEYMGYISYTGSTYYNPSLKSRVTITVDTSKNQFSLKLSSVTTADTAVYYCARYRDWDVRAMDYWGQGTTVTVSS
VL: DIVMTQSPDSLAVSLGEKVTMNCKSSQSLLISGNQKNFLTWYQQKPGQPPKLLIYWASTRESGVPDRFSGSGSGTDFTLTISSLQAEDLAVYYCQNDFGFPFTFGQGTKVEIKR
notes: humanized 56E5 antibody
B1: the binding result in assay [1] and in assay [2] was “binds” each time.

B2: 56E5VH3VL4 (antibody, human IgG1, kappa, N297A, V domains shown)
VH: QVQLQESGPGLVKPSQTLSLTCTVSGGSITSDYWNWIRQHPGNKLEYMGYISYTGSTYYNPSLKSRVTITVDTSKNQFSLKLSSVTTADTAVYYCARYRDWDVRAMDYWGQGTTVTVSS
VL: DIVMTQSPDSLAVSLGEKVTMNCKSSQSLLISGNQKNFLTWYQQKPGQPPKLLIYWASTRESGVPDRFSGSGSGTDFTLTISSLQAEDLAVYYCQNDFGFPFTFGQGTKVEIKR
notes: humanized 56E5 antibody
On to B2, for which the binding result in assay [1] and in assay [2] was “binds” in each case.

B3: 56E5VH4VL4 (antibody, human IgG1, kappa, N297A, V domains shown)
VH: QVQLQESGPGLVKPSQTLSLTCTVSGGSITSDYWNWIRQHPGNKLEYMGYISYTGSTYYNPSLKSRVTITRDTSKNQFSLKLSSVTTADTAVYYCARYRDWDVRAMDYWGQGTTVTVSS
VL: DIVMTQSPDSLAVSLGEKVTMNCKSSQSLLISGNQKNFLTWYQQKPGQPPKLLIYWASTRESGVPDRFSGSGSGTDFTLTISSLQAEDLAVYYCQNDFGFPFTFGQGTKVEIKR
notes: humanized 56E5 antibody
Take B3: the binding result in assay [1] and in assay [2] was “binds” throughout.

B4: 3C2VH3VL3 (antibody, human IgG1, kappa, N297A, V domains shown)
VH: QVQLVQSGAEVKKPGASVKVSCKASGYTFTDYHVNWVKQRPGQGLEWIGWIFPGSGRTFYTDKFKGRVTLTVDTSTSTVYMELSSLTSEDTAVYYCATDYGTSGYGLVYWGQGTTVTVSS
VL: DIQMTQSPSSLSASVGDRVTISCKASDRINNWLAWYQQKPGNAPRLLISGATSLETGVPSRFSGSGSGTDYTFTISSLQPEDIATYYCQQYWNIPFTFGQGTKVEIKR
notes: humanized 3C2 antibody
As to B4, the binding result in assay [3] and in assay [4] was “binds” each time.

B5: 3C2VH5VL2 (antibody, human IgG1, kappa, N297A, V domains shown)
VH: QVQLVQSGAEVKKPGASVKVSCKASGYSFTDYHVNWVKQRPGQGLEWIGWIFPGSGRTFYTDKFKGKATLTVDTSTSTVYMELSSLTSEDTAVYFCATDYGTSGYGLVYWGQGTTVTVSS
VL: DIQMTQSPSSLSASVGDRVTITCKASDRINNWLAWYQQKPGKAPRLLISGATSLETGVPSRFSGSGSGTDYTFTISSLQPEDIATYYCQQYWNIPFTFGQGTKVEIKR
notes: humanized 3C2 antibody
For B5, the binding result in assay [3] and in assay [4] was “binds” throughout.

B6: 3C2VH4VL3 (antibody, human IgG1, kappa, N297A, V domains shown)
VH: QVQLVQSGAEVKKPGASVKVSCKASGYSFTDYHVNWVKQRPGQGLEWIGWIFPGSGRTFYTDKFKGRVTLTVDTSTSTVYMELSSLTSEDTAVYFCATDYGTSGYGLVYWGQGTTVTVSS
VL: DIQMTQSPSSLSASVGDRVTISCKASDRINNWLAWYQQKPGNAPRLLISGATSLETGVPSRFSGSGSGTDYTFTISSLQPEDIATYYCQQYWNIPFTFGQGTKVEIKR
notes: humanized 3C2 antibody
Consider B6, for which the binding result in assay [3] and in assay [4] was “binds” each time.

B7: 3C2VH4VL2 (antibody, human IgG1, kappa, N297A, V domains shown)
VH: QVQLVQSGAEVKKPGASVKVSCKASGYSFTDYHVNWVKQRPGQGLEWIGWIFPGSGRTFYTDKFKGRVTLTVDTSTSTVYMELSSLTSEDTAVYFCATDYGTSGYGLVYWGQGTTVTVSS
VL: DIQMTQSPSSLSASVGDRVTITCKASDRINNWLAWYQQKPGKAPRLLISGATSLETGVPSRFSGSGSGTDYTFTISSLQPEDIATYYCQQYWNIPFTFGQGTKVEIKR
notes: humanized 3C2 antibody
B7: the binding result in assay [3] and in assay [4] was “binds” throughout.

B8: 3C2VH3VL2 (antibody, human IgG1, kappa, N297A, V domains shown)
VH: QVQLVQSGAEVKKPGASVKVSCKASGYTFTDYHVNWVKQRPGQGLEWIGWIFPGSGRTFYTDKFKGRVTLTVDTSTSTVYMELSSLTSEDTAVYYCATDYGTSGYGLVYWGQGTTVTVSS
VL: DIQMTQSPSSLSASVGDRVTITCKASDRINNWLAWYQQKPGKAPRLLISGATSLETGVPSRFSGSGSGTDYTFTISSLQPEDIATYYCQQYWNIPFTFGQGTKVEIKR
notes: humanized 3C2 antibody
As to B8, the binding result in assay [3] and in assay [4] was “binds” throughout.

B9: 3C2VH2VL4 (antibody, human IgG1, kappa, N297A, V domains shown)
VH: QVQLVQSGAEVKKPGASVKVSCKASGYTFTDYHVNWVRQAPGQGLEWIGWIFPGSGRTFYTDKFKGRVTLTVDTSTSTVYMELSSLTSEDTAVYYCATDYGTSGYGLVYWGQGTTVTVSS
VL: DIQMTQSPSSLSASVGDRVTISCKASDRINNWLAWYQQKPGNAPRLLISGATSLETGVPSRFSGSGSGTDYTFTISSLQPEDIAVYYCQQYWNIPFTFGQGTKVEIKR
notes: humanized 3C2 antibody
For B9, the binding result in assay [3] and in assay [4] was “binds” each time.

B10: 3C2VH2VL3 (antibody, human IgG1, kappa, N297A, V domains shown)
VH: QVQLVQSGAEVKKPGASVKVSCKASGYTFTDYHVNWVRQAPGQGLEWIGWIFPGSGRTFYTDKFKGRVTLTVDTSTSTVYMELSSLTSEDTAVYYCATDYGTSGYGLVYWGQGTTVTVSS
VL: DIQMTQSPSSLSASVGDRVTISCKASDRINNWLAWYQQKPGNAPRLLISGATSLETGVPSRFSGSGSGTDYTFTISSLQPEDIATYYCQQYWNIPFTFGQGTKVEIKR
notes: humanized 3C2 antibody
B10: the binding result in assay [3] and in assay [4] was “binds” throughout.

B11: 3C2VH5VL3 (antibody, human IgG1, kappa, N297A, V domains shown)
VH: QVQLVQSGAEVKKPGASVKVSCKASGYSFTDYHVNWVKQRPGQGLEWIGWIFPGSGRTFYTDKFKGKATLTVDTSTSTVYMELSSLTSEDTAVYFCATDYGTSGYGLVYWGQGTTVTVSS
VL: DIQMTQSPSSLSASVGDRVTISCKASDRINNWLAWYQQKPGNAPRLLISGATSLETGVPSRFSGSGSGTDYTFTISSLQPEDIATYYCQQYWNIPFTFGQGTKVEIKR
notes: humanized 3C2 antibody
In the case of B11, the binding result in assay [3] and in assay [4] was “binds” throughout.

B12: 3C2VH5VL4 (antibody, human IgG1, kappa, N297A, V domains shown)
VH: QVQLVQSGAEVKKPGASVKVSCKASGYSFTDYHVNWVKQRPGQGLEWIGWIFPGSGRTFYTDKFKGKATLTVDTSTSTVYMELSSLTSEDTAVYFCATDYGTSGYGLVYWGQGTTVTVSS
VL: DIQMTQSPSSLSASVGDRVTISCKASDRINNWLAWYQQKPGNAPRLLISGATSLETGVPSRFSGSGSGTDYTFTISSLQPEDIAVYYCQQYWNIPFTFGQGTKVEIKR
notes: humanized 3C2 antibody
For the molecule B12, the binding result in assay [3] and in assay [4] was “binds” in each case.

B13: 3C2VH3VL4 (antibody, human IgG1, kappa, N297A, V domains shown)
VH: QVQLVQSGAEVKKPGASVKVSCKASGYTFTDYHVNWVKQRPGQGLEWIGWIFPGSGRTFYTDKFKGRVTLTVDTSTSTVYMELSSLTSEDTAVYYCATDYGTSGYGLVYWGQGTTVTVSS
VL: DIQMTQSPSSLSASVGDRVTISCKASDRINNWLAWYQQKPGNAPRLLISGATSLETGVPSRFSGSGSGTDYTFTISSLQPEDIAVYYCQQYWNIPFTFGQGTKVEIKR
notes: humanized 3C2 antibody
Regarding B13, the binding result in assay [3] and in assay [4] was “binds” throughout.

B14: humanized antibody 3C2-VH4VL4 (antibody, human IgG1, kappa, N297A, V domains shown)
VH: QVQLVQSGAEVKKPGASVKVSCKASGYSFTDYHVNWVKQRPGQGLEWIGWIFPGSGRTFYTDKFKGRVTLTVDTSTSTVYMELSSLTSEDTAVYFCATDYGTSGYGLVYWGQGTTVTVSS
VL: DIQMTQSPSSLSASVGDRVTISCKASDRINNWLAWYQQKPGNAPRLLISGATSLETGVPSRFSGSGSGTDYTFTISSLQPEDIAVYYCQQYWNIPFTFGQGTKVEIKR
notes: Human IgG1(N297A)/kappa
As for B14, the Kd came out at 0.307 nM in assay [5] and 0.245 nM in assay [6]. For the same molecule, the binding result in assay [4] is “binds”.

B15: 3C2VH2VL2 (antibody, human IgG1, kappa, N297A, V domains shown)
VH: QVQLVQSGAEVKKPGASVKVSCKASGYTFTDYHVNWVRQAPGQGLEWIGWIFPGSGRTFYTDKFKGRVTLTVDTSTSTVYMELSSLTSEDTAVYYCATDYGTSGYGLVYWGQGTTVTVSS
VL: DIQMTQSPSSLSASVGDRVTITCKASDRINNWLAWYQQKPGKAPRLLISGATSLETGVPSRFSGSGSGTDYTFTISSLQPEDIATYYCQQYWNIPFTFGQGTKVEIKR
notes: humanized 3C2 antibody
Consider B15, for which the binding result in assay [3] and in assay [4] was “binds” each time.

The record behind these values is patent US20220298244A1 (BEIJING MABWORKS BIOTECH, published 2022).
